Numbering of substitutions follows the chain as printed. In names and notes the source's numbering stands.
T1: Biotin-FcγRIIB (human, UniProt P31994 43-217, limits assumed, biotin-labelled)
T1 construct: Bought, biotin-labelled; used at 1 µg/ml for staining and sorting; also called human FcγRIIB; CD32b
T1 sequence (looked up): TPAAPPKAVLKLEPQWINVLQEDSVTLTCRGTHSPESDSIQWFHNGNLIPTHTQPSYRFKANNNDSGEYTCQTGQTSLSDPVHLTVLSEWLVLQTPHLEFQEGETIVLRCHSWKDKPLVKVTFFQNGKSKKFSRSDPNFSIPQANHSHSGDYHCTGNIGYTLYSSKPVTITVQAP

B1: human IgG2 anti-mouse CD40 surface displayed antibody, Fc mutant P271G/S298G (antibody, name in EU numbering)
light chain (with the P2A rest): DTVLTQSPALAVSPGERVTISCRASDSVSTLMHWYQQKPGQQPKLLIYLASHLESGVPARFSGSGSGTDFTLTIDPVEADDTATYYCQQSWNDPWTFGGGTKLELKRTVAAPSVFIFPPSDEQLKSGTASVVCLLNNFYPREAKVQWKVDNALQSGNSQESVTEQDSKDSTYSLSSTLTLSKADYEKHKVYACEVTHQGLSSPVTKSFNRGECGSGATNFSLLKQAGDVEENPG
heavy chain: EVQLVESDGGLVQPGRSLKLPCAASGFTFSDYYMAWVRQAPTKGLEWVASISYDGSSTYYRDSVKGRFTISRDNAKSTLYLQMDSLRSEDTATYYCGRHSSYFDYWGQGVMVTVSSASTKGPSVFPLAPCSRSTSESTAALGCLVKDYFPEPVTVSWNSGALTSGVHTFPAVLQSSGLYSLSSVVTVPSSNFGTQTYTCNVDHKPSNTKVDKTVERKCCVECPPCPAPPVAGPSVFLFPPKPKDTLMISRTPEVTCVVVDVSHEDGEVQFNWYVDGVEVHNAKTKPREEQFNGTFRVVSVLTVVHQDWLNGKEYKCKVSNKGLPAPIEKTISKTKGQPREPQVYTLPPSREEMTKNQVSLTCLVKGFYPSDIAVEWESNGQPENNYKTTPPMLDSDGSFFLYSKLTVDKSRWQQGNVFSCSVMHEALHNHYTQKSLSLSPGKLEPPPSTVSNMATVAVLVVLGAAIVTGAVVAFVMKMRRRNTGGKGGDYALAPGSQTSDLSLPDCKVMVHDPHSLA
notes: as m1; positions are Eu numbers; copies: 2 + 2
B2: human IgG2 anti-mouse CD40 surface displayed antibody, Fc mutant V266A/P271G (antibody, name in EU numbering)
light chain (with the P2A rest): B1 light chain (with the P2A rest)
heavy chain: B1 heavy chain with V261A, G293S
notes: as for B1
B3: human IgG2 anti-mouse CD40 surface displayed antibody, Fc mutant P271G/S298E (antibody, name in EU numbering)
light chain (with the P2A rest): B1 light chain (with the P2A rest)
heavy chain: B1 heavy chain with G293E
notes: as for B1
B4: human IgG2 anti-mouse CD40 surface displayed antibody, Fc mutant P271G/T299A (antibody, name in EU numbering)
light chain (with the P2A rest): B1 light chain (with the P2A rest)
heavy chain: B1 heavy chain with G293S, T294A
notes: as for B1
B5: human IgG2 anti-mouse CD40 surface displayed antibody, Fc mutant S267M/P271G (antibody, name in EU numbering)
light chain (with the P2A rest): B1 light chain (with the P2A rest)
heavy chain: B1 heavy chain with S262M, G293S
notes: as for B1
B6: human IgG2 anti-mouse CD40 surface displayed antibody, Fc mutant P271G/T299S (antibody, name in EU numbering)
light chain (with the P2A rest): B1 light chain (with the P2A rest)
heavy chain: B1 heavy chain with G293S, T294S
notes: as for B1
B7: human IgG2 anti-mouse CD40 surface displayed antibody, Fc mutant P271G/S298K (antibody, name in EU numbering)
light chain (with the P2A rest): B1 light chain (with the P2A rest)
heavy chain: B1 heavy chain with G293K
notes: as for B1
B8: human IgG2 anti-mouse CD40 surface displayed antibody, Fc mutant P271G/T299M (antibody, name in EU numbering)
light chain (with the P2A rest): B1 light chain (with the P2A rest)
heavy chain: B1 heavy chain with G293S, T294M
notes: as for B1
B9: human IgG2 anti-mouse CD40 surface displayed antibody, Fc mutant P271G/T299W (antibody, name in EU numbering)
light chain (with the P2A rest): B1 light chain (with the P2A rest)
heavy chain: B1 heavy chain with G293S, T294W
notes: as for B1
B10: human IgG2 anti-mouse CD40 surface displayed antibody, Fc mutant S267A/P271G (antibody, name in EU numbering)
light chain (with the P2A rest): B1 light chain (with the P2A rest)
heavy chain: B1 heavy chain with S262A, G293S
notes: as for B1
B11: human IgG2 anti-mouse CD40 surface displayed antibody, Fc mutant P271G/S298L (antibody, name in EU numbering)
light chain (with the P2A rest): B1 light chain (with the P2A rest)
heavy chain: B1 heavy chain with G293L
notes: as for B1
B12: human IgG2 anti-mouse CD40 surface displayed antibody, Fc mutant P271G/S298N (antibody, name in EU numbering)
light chain (with the P2A rest): B1 light chain (with the P2A rest)
heavy chain: B1 heavy chain with G293N
notes: as for B1
B13: human IgG2 anti-mouse CD40 surface displayed antibody, Fc mutant H268S (antibody, name in EU numbering)
light chain (with the P2A rest): B1 light chain (with the P2A rest)
heavy chain: B1 heavy chain with H263S, G266P, G293S
notes: as for B1
B14: human IgG2 anti-mouse CD40 surface displayed antibody, Fc mutant L328G (antibody, name in EU numbering)
light chain (with the P2A rest): B1 light chain (with the P2A rest)
heavy chain: B1 heavy chain with G266P, G293S, L323G
notes: as for B1
B15: human IgG2 anti-mouse CD40 surface displayed antibody, Fc mutant L328V (antibody, name in EU numbering)
light chain (with the P2A rest): B1 light chain (with the P2A rest)
heavy chain: B1 heavy chain with G266P, G293S, L323V
notes: as for B1
B16: human IgG2 anti-mouse CD40 surface displayed antibody, Fc mutant L328R (antibody, name in EU numbering)
light chain (with the P2A rest): B1 light chain (with the P2A rest)
heavy chain: B1 heavy chain with G266P, G293S, L323R
notes: as for B1

These molecules were tested against Biotin-FcγRIIB (human) (UniProt P31994) (assay: FACS sorting of displayed Fc library on biotin-FcγRIIB, NGS).

Row | Molecule | Increased factor b Site 2 (point mutation/wild-type)
1 | human IgG2 anti-mouse CD40 surface displayed antibody, Fc mutant P329S | 1.2
2 | human IgG2 anti-mouse CD40 surface displayed antibody, Fc mutant T299W | 0.5
3 | human IgG2 anti-mouse CD40 surface displayed antibody, Fc mutant S298D | 1.6
4 | human IgG2 anti-mouse CD40 surface displayed antibody, Fc mutant S298G | 1.2
5 | human IgG2 anti-mouse CD40 surface displayed antibody, Fc mutant S298R | 0.8
6 | human IgG2 anti-mouse CD40 surface displayed antibody, Fc mutant P271W | 0.4
7 | human IgG2 anti-mouse CD40 surface displayed antibody, Fc mutant G236V | 0.5
8 | human IgG2 anti-mouse CD40 surface displayed antibody, Fc mutant T299A | 0.4
9 | human IgG2 anti-mouse CD40 surface displayed antibody, Fc mutant D270H | 1.3
10 | human IgG2 anti-mouse CD40 surface displayed antibody, Fc mutant T299S | 0.6
11 | human IgG2 anti-mouse CD40 surface displayed antibody, Fc mutant I332T | 1.6
12 | human IgG2 anti-mouse CD40 surface displayed antibody, Fc mutant I332E | 1.1

Each molecule was assayed against T1, Biotin-FcγRIIB (assay: FACS sorting of displayed Fc library on biotin-FcγRIIB, NGS; reference P271G).

Row | Molecule | Increased factor 2 c Site 1 (combined/point mutation) | Increased factor 2 c Site 2 (combined/point mutation)
13 | B1 | 2.8 | –
14 | B2 | – | 3.2
15 | B3 | 84.2 | –
16 | B4 | 1.8 | –
17 | B5 | – | 1.6
18 | B6 | 3.4 | –
19 | B7 | 2.9 | –
20 | B8 | 1.3 | –
21 | B9 | 2.6 | –
22 | B10 | – | 1.9
23 | B11 | 53.2 | –
24 | B12 | 5.1 | –

What follows are molecules tested against T1, Biotin-FcγRIIB (assay: magnetic sorting on biotin-FcγRIIB with unlabelled activating FcγRs, NGS; LibraryMix #3).
Protocol: 3T3 cells were collected by trypsin digestion, and a single cell suspension was prepared. […] The cells were incubated for 15 minutes on ice and then washed twice with MACS buffer and re-suspended in 100 μl MACS buffer. Twenty-five μl anti-Biotin magnetic beads were added, and the cells were incubated for 15 minutes on ice and then washed once with MACS buffer and re-suspended to 500 μl, and added to the LS column put in the magnetic field. The effluent was collected, washed with 3 mL of MACS buffer and collected; The LS column was then removed out of the magnetic field, and 5 mL of MACS buffer was used to rapidly elute the remaining cells from the sorting column to collect positive cells, which are the high I/A ratio cells.

Row | Molecule | Enrichment factor (percentage after sorting/percentage before sorting) | Increased factor (mutation enrichment factor/wild-type enrichment factor) | Percentage after sorting/unbinding percentage | Percentage before sorting/unbinding percentage
25 | B13 | 7.85 | 6.95 | – | –
26 | B14 | 3.01 | 2.67 | – | –
27 | B15 | 2.31 | 2.04 | 25.4 | 11
28 | B12 | 2.31 | 2.04 | 11.9 | 5.17
29 | B16 | 5.3 | 4.69 | 30.8 | 5.82

Each molecule was assayed against T1, Biotin-FcγRIIB (assay: FACS sorting of displayed Fc library on biotin-FcγRIIB, NGS).

Row | Molecule | Enrichment factor (after/before sorting) | Increased factor a (enrichment factor/wild-type enrichment factor)
30 | B1 | 9.73 | 13
31 | B2 | 8.63 | 15
32 | B3 | 298 | 398
33 | B4 | 6.28 | 8.39
34 | B5 | 4.31 | 7.52
35 | B6 | 12 | 16
36 | B7 | 10.2 | 13.6
37 | B8 | 4.74 | 6.33
38 | B9 | 9.23 | 12.3
39 | B10 | 5.27 | 9.19
40 | B11 | 188 | 252
41 | B12 | 18 | 24

— patent publication US20230220042A1 (SHANGHAI JIAO TONG UNIVERSITY SCHOOL OF MEDICINE, published 2023)
